Laboratory results published in patent US9187525B2, “Methods of treating ophthalmic diseases using NPR-B agonists” (Shire Orphan Therapies GmbH, dated 2015).
Numbered stars: 1 amine (or outer) side, 2 acyl side, 3 side chain; on linkers, the order of the positions; unused ones are H or OH. Square brackets hold non-standard residues; d marks the D form. Ends that are not written are not given here. * marks the point of attachment. AFL = (S)-2-((S)-3-amino-2-oxopyrrolidin-1-yl)-3-phenylpropanoic acid, O=C1[C@@H](N[*:1])CCN1[C@@H](Cc1ccccc1)C(=O)[*:2]; Tap(Ae) = (2S,4R)-4-(2-aminoethylamino)pyrrolidine-2-carboxylic acid, O=C([C@@H]1C[C@@H](NCCN[*:3])CN1[*:1])[*:2]; Pca = (2S,3R)-3-aminopyrrolidine-2-carboxylic acid, O=C([C@@H]1[C@H](N[*:3])CCN1[*:1])[*:2]; Pro(trans-4-NH2) = O=C([C@@H]1C[C@@H](N[*:3])CN1[*:1])[*:2]; Sni = (S)-nipecotic acid, O=C([C@H]1CCCN([*:1])C1)[*:2]; Gly(2-thienyl) = N[C@H](C(=O)O)c1cccs1; Hyp = O=C(O)[C@@H]1C[C@@H](O)CN1; hPhe = N[C@@H](CCc1ccccc1)C(=O)O; NMeL = CN[C@@H](CC(C)C)C(=O)O; Chg = N[C@H](C(=O)O)C1CCCCC1; BB394 = not defined here; BB785 = not defined here; Api = NC1(C(=O)O)CCNCC1; Che = not defined here; Hexanoyl = CCCCCC(=O)*; NP = not defined here; Occ = octanoic acid

B1: JAL-1694 (peptide)
peptide: [Occ][Sni]FLL[Hyp][NMeL]D[BB394][Che]
modifications: not fully specified (residue 4); printed as Occ-Sni-Phe-leu-Leu-Hyp-Nml-Asp-(BB394)-Che; reading uncertain
B2: JAL-1672 (peptide)
peptide: [Occ][Sni]F[dL]L[Hyp][NMeL]D[Api][Che]
modifications: reading uncertain; also: printed as Occ-Sni-Phe-leu-Leu-Hyp-Nml-Asp-Apc-Che
B3: JAL-1683 (peptide)
peptide: [Occ][Sni]FLL[Tap(Ae)][NMeL]VR[Che]
modifications: not fully specified (residue 4); printed as Occ-Sni-Phe-leu-Leu-Tap(Ae)-Nml-Val-Arg-Che; reading uncertain
B4: JAL-1701 (peptide)
peptide: [Occ][Sni][hPhe]LL[Hyp][NMeL]DRI-NH2
modifications: not fully specified (residue 4); printed as Occ-Sni-Hfe-leu-Leu-Hyp-Nml-Asp-Arg-Ile-
B5: JAL-1676 (peptide)
peptide: [Occ][Sni]F[dL]L[Pro(trans-4-NH2)][NMeL][Gly(2-thienyl)]P[Che]
modifications: reading uncertain; also: printed as Occ-Sni-Phe-leu-Leu-Tap-Nml-(BB726)-Pro-Che
B6: JAL-1669 (peptide)
peptide: XXXFLLXXDRI
HELM: PEPTIDE1{[O=C(CCc1ccccc1)[*:2]].[bAla].[O=C([C@H]1CCCN([*:1])C1)[*:2]].F.[dL].L.[Hyp].[meL].D.R.I.[am]}$$$$V2.0
SMILES: CC[C@H](C)[C@H](NC(=O)[C@H](CCCNC(=N)N)NC(=O)[C@H](CC(=O)O)NC(=O)[C@H](CC(C)C)N(C)C(=O)[C@@H]1C[C@@H](O)CN1C(=O)[C@H](CC(C)C)NC(=O)[C@@H](CC(C)C)NC(=O)[C@H](Cc1ccccc1)NC(=O)[C@H]1CCCN(C(=O)CCNC(=O)CCc2ccccc2)C1)C(N)=O
B7: JAL-1753 (peptide)
peptide: [Occ][Sni]FLL[Hyp][NMeL]TR[Che]
modifications: not fully specified (residue 4); printed as Occ-Sni-Phe-leu-Leu-Hyp-Nml-Thr-Arg-Che; reading uncertain
B8: JAL-0718 (peptide)
peptide: Hexanoyl-[dA][dA]FGLKLDR[Chg]-NH2
B9: JAL-0713 (peptide)
peptide: XXFGLKLDRI
HELM: PEPTIDE1{[CCCCCC(=O)[*:2]].[O=C(c1nc(N[*:1])cs1)[*:2]].F.G.L.K.L.D.R.I.[am]}$$$$V2.0
SMILES: CCCCCC(=O)Nc1csc(C(=O)N[C@@H](Cc2ccccc2)C(=O)NCC(=O)N[C@@H](CC(C)C)C(=O)N[C@@H](CCCCN)C(=O)N[C@@H](CC(C)C)C(=O)N[C@@H](CC(=O)O)C(=O)N[C@@H](CCCNC(=N)N)C(=O)N[C@H](C(N)=O)[C@@H](C)CC)n1
B10: JAL-1730 (peptide)
peptide: [Occ][Sni]FLL[Hyp][NMeL]VR[Che]
modifications: not fully specified (residue 4); printed as Occ-Sni-Phe-leu-Leu-Hyp-Nml-Val-Arg-Che; reading uncertain
B11: JAL-1682 (peptide)
peptide: [Occ][Sni]FLL[Pro(trans-4-NH2)][NMeL]DR[Che]
modifications: not fully specified (residue 4); printed as Occ-Sni-Phe-leu-Leu-Tap-Nml-Asp-Arg-Che; reading uncertain
B12: JAL-1679 (peptide)
peptide: [Occ][Sni]F[dL]L[Hyp][NMeL]D[Pca][Che]
modifications: reading uncertain; also: printed as Occ-Sni-Phe-leu-Leu-Hyp-Nml-Asp-Pca-Che
B13: JAL-1697 (peptide)
peptide: [Occ][Sni]FLL[Hyp][NMeL]D[BB785][Che]
modifications: not fully specified (residue 4); printed as Occ-Sni-Phe-leu-Leu-Hyp-Nml-Asp-(BB785)-Che; reading uncertain
B14: JAL-1687 (peptide)
peptide: [Occ][Sni]FLL[Hyp][NMeL]D[Apc(Gly)][Che]
modifications: not fully specified (residue 4); printed as Occ-Sni-Phe-leu-Leu-Hyp-Nml-Asp-Apc(Gly)-Che; reading uncertain
B15: JAL-1751 (peptide)
peptide: [Occ][Sni]FLL[Hyp][NMeL]NR[Che]
modifications: not fully specified (residue 4); printed as Occ-Sni-Phe-leu-Leu-Hyp-Nml-Asn-Arg-Che; reading uncertain
B16: JAL-1752 (peptide)
peptide: [Occ][Sni]FLL[Hyp][NMeL]SR[Che]
modifications: not fully specified (residue 4); printed as Occ-Sni-Phe-leu-Leu-Hyp-Nml-Ser-Arg-Che; reading uncertain
B17: JAL-1673 (peptide)
peptide: [Occ][Sni]F[dL]L[Hyp][NMeL][NP][Che]
modifications: reading uncertain; also: printed as Occ-Sni-Phe-leu-Leu-Hyp-Nml-NP-Che
B18: JAL-1680 (peptide)
peptide: [Occ][Sni]F[dL]L[Hyp][NMeL]DR[Che]
modifications: reading uncertain; also: printed as Occ-Sni-Phe-leu-Leu-Hyp-Nml-Asp-Arg-Che
B19: JAL-1671 (peptide)
peptide: [Occ][AFL][dL]L[Hyp][NMeL]DRI-NH2
B20: JAL-1729 (peptide)
peptide: [Occ][Sni]FLL[Pro(trans-4-NH2)][NMeL]VR[Che]
modifications: not fully specified (residue 4); printed as Occ-Sni-Phe-leu-Leu-Tap-Nml-Val-Arg-Che; reading uncertain
B21: JAL-1681 (peptide)
peptide: [Occ][Sni]FLL[Tap(Ae)][NMeL]DR[Che]
modifications: not fully specified (residue 4); printed as Occ-Sni-Phe-leu-Leu-Tap(Ae)-Nml-Asp-Arg-Che; reading uncertain
B22: JAL-1685 (peptide)
peptide: [Occ][Sni]FLL[Hyp][NMeL]D[Apc(Gua)][Che]
modifications: not fully specified (residue 4); printed as Occ-Sni-Phe-leu-Leu-Hyp-Nml-Asp-Apc(Gua)-Che; reading uncertain

Target: T1, natriuretic peptide receptor-B (human)
T1 chain: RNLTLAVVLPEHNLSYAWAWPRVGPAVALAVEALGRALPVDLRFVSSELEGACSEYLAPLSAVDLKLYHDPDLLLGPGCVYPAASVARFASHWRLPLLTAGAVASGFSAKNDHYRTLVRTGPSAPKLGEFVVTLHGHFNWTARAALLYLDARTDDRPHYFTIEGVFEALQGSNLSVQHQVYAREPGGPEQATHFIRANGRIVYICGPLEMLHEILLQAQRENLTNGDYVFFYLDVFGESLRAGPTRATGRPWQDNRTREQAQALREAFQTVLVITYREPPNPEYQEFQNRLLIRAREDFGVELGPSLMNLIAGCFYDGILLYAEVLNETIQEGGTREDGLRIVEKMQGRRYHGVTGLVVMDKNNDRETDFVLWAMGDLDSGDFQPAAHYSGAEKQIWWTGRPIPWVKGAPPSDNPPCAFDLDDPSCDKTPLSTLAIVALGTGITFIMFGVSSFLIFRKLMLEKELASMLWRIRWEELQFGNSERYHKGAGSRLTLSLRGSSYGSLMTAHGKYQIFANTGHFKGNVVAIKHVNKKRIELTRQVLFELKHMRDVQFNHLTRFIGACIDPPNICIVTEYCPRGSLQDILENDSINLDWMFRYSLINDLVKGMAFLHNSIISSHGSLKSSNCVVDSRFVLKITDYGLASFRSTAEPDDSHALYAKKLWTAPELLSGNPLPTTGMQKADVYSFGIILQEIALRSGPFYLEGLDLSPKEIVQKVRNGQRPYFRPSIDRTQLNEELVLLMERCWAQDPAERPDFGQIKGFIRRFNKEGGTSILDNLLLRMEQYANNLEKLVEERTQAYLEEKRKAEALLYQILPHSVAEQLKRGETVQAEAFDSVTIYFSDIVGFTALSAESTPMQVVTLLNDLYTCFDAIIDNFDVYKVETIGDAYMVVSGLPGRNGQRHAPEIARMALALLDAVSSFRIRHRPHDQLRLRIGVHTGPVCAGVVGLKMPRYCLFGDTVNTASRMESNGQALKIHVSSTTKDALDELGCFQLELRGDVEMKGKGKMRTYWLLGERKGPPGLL
Assay: cell-based or functional assay

Binder	EC50 group, cGMP in GTM-3 cells [µM]
B1	≤ 15
B2	≤ 15
B3	≤ 15
B4	≤ 15
B5	≤ 5
B6	≤ 15
B7	≤ 1
B8	≤ 15
B9	≤ 15
B10	≤ 1
B11	≤ 1
B12	≤ 1
B13	≤ 5
B14	≤ 5
B15	≤ 15
B16	≤ 1
B17	≤ 15
B18	≤ 1
B19	≤ 1
B20	≤ 1
B21	≤ 1
B22	≤ 15
